Literature values, collected in PMC4421034.

Molecular target: Calmodulin (UniProt P0DP23)

Substance: MLCK (from UniProt Q15746)
- Kd: 1 nM
